The source of these data is US20180355059A1.

In the test the target is recombinant human PCSK9^D374Y protein (human), Q8NBP7. Put plainly: cell-based or functional assay.

B1: 103C11E8, chimeric anti-PCSK9 antibody from hybridoma (antibody, V domains shown)
VH: QVQLQESGPGLVKPSGTLSLTCAVSGGSISSSNWWSWVRQPPGKGLEWIGEIYHSGSTNYNPSLKSRVTISVDKSKNQFSLKLSSVTAADTAVYYCARGIAVAGTDVMDAWGQGASVTVSS
VL: EIVLTQSPATLSLSPGERATLSCRASQSVSSYLVWYQQKSGQAPRLLIYGTSNRATGIPARFSGSGSGTDFTLTISSLEPEDFALYYCQQRGNWMYTFGQGTKLEIK
modifications: here or on the partner: biotinylated in the ELISA assays
Take B1: the LDL (%), LDL uptake by HepG2 cells; antibody 0.67 nM was 20%; the LDL (%), LDL uptake by HepG2 cells; antibody 6.67 nM amounted to 43.8%; the LDL (%), LDL uptake by HepG2 cells; antibody 66.70 nM was 86.4%.
